Measurements taken from patent US20240042020A1.

Target: human GARP-TGF-β1 complex (human) (UniProt Q14392)

minimal concentration that maximally inhibits TGF-β1 release and signaling (reporter assay): 0.8 µg/mL
Substance: livmoniplimab (antibody)
